According to publication PMC4517634:

Columns and labels:
[1] = target: human cathepsin G (human) (UniProt P08311)
[2] = target: human cathepsin L (human)
[3] = target: human thrombin (human)
[4] = target: human trypsin (human)

human cathepsin G (human), sequence (P08311 21-244): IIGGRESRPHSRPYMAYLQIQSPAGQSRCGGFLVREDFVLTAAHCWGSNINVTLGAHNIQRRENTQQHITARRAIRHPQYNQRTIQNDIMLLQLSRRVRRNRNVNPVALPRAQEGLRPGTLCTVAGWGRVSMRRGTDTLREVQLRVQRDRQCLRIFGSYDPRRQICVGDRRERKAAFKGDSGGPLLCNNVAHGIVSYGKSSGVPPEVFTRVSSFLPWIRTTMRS

Substance: recombinant His-tagged ANISERP protein (baculovirus system) (from UniProt F4MST7 1-397) (natural protein)
- IC50 of inhibition of cathepsin G (0.33 nM) proteolytic activity on N-succinyl-Ala-Ala-Phe-AMC [1]: 542 nM
- IC50 of inhibition of cathepsin L (0.83 nM) proteolytic activity on Z-Phe-Arg-AMC [2]: 217 nM
- IC50 of inhibition of thrombin (74 nM) proteolytic activity on Boc-Val-Arg-AMC after 10 min at 37 °C with ANISERP [3]: 152 nM
- IC50 of inhibition of trypsin (54 nM) proteolytic activity on Boc-Gln-Ala-Arg-AMC [4]: 173 nM
